Paper doi:10.1101/402990 (bioRxiv, 2018)

Target: T1, 6His-Tea3 (S. pombe, UniProt O14248 1-1125)
T1 sequence (looked up): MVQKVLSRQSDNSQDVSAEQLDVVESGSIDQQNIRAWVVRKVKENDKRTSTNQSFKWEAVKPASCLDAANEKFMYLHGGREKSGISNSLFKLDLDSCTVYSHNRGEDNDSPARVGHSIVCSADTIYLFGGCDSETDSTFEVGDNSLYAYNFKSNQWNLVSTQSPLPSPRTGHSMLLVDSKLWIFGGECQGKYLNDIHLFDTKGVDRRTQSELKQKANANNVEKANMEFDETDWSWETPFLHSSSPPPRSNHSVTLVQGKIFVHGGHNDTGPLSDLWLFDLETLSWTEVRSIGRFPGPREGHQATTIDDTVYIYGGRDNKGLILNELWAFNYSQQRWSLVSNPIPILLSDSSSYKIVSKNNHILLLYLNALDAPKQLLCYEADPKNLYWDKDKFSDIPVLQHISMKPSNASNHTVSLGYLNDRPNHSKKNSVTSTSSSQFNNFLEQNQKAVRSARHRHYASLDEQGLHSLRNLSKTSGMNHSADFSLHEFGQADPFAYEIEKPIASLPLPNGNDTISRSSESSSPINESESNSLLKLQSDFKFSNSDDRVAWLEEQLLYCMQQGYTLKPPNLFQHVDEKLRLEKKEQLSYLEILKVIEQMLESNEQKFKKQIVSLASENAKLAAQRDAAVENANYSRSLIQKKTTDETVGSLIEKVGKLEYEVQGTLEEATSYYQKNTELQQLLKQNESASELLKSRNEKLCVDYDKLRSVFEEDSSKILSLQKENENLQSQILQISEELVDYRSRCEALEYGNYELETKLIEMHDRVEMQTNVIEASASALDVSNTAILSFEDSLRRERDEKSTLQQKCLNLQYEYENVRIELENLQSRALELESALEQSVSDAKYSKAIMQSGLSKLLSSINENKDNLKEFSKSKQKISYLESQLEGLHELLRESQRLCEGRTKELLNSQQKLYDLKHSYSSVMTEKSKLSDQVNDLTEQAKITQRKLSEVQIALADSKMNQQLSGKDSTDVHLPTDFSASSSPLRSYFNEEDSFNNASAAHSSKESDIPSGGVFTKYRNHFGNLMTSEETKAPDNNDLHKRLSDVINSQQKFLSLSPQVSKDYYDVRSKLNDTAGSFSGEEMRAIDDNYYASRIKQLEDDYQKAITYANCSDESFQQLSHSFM
Assay: pull-down

B1: GST-Shk1 (enzyme, S. pombe, UniProt P50527 1-658, looked up)
chain: MERGTLQPRKKAPNGYGITPIVAHKTGEPVRYEVEDDLRKLKPSRTAPKPPAINTNLAEDTFSGFPLSQSRTTVSRVSLGSRQHSSSSIRKLQTNVSDVRSYDERNQKKSAFENFVSSMSSFLTGGGSSPTSSYGSGSASPRKSTVISSPFDPKHVTHVGFNYDTGEFTGMPTEWQALLKVSGITKSEQVQHPQAVLDAMAFYSQSKKYLEEGAKPPFPRESTEKPLLSVSALSSSSHLQPTSATSSSSRLYPSRPAPTPPASSSSSPLLSSQTVKTTTSNASRQPSPLVSSKSTDNIIRSHSPVLLTPQTLSTSETKHIRPNNSTPYQRRAETSTKPKAVATPQKVEAPSAPRLQKRAPRQQSNDSAVLAKLQSICNPKNPTLLYRNFVKIGQGASGDVYSARQVGTNLSVAIKKMNINQQPKKEFIVNEILVMKSHHHKNIVNFIDTFFYKSELWMVMEYMRGGSLTEVVTNNTLSEGQIAAICKETLEGLQHLHENGIVHRDIKSDNILLSLQGDIKLTDFGFCAQIDSNMTKRTTMVGTPYWMAPEVVTRKEYGFKVDVWSLGIMAIEMVEGEPPYLNENPLRALYLIATIGTPKISRPELLSSVFHDFLSKSLTVNPKQRPSSGELLRHPFLKQAVPVSSLIPLIKSIHHSGK
Q: Does B1 bind?
A: Result: binds
